The nanobody polyreactivity screen of Harvey et al. (2022)

Assay: yeast display, Sf9 membrane polyspecificity reagent, FACS + sequencing; frameworks hold sequencing errors
Procedure, shortened: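 Galactose induction of a Saccharomyces cerevisiae BJ5465 synthetic nanobody display library ran 36–48 hours. The cells were then stained for 1 hour at 4 °C with 10% biotinylated, detergent-solubilized Sf9 membrane reagent, pulled down on streptavidin microbeads and FACS-sorted into low and high (top ~1%) gates on expression and reagent-binding fluorescence. Labels for polyreactivity follow the gate of origin.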

| Sequence | polyreactivity (PSR sort gate) |
| --- | --- |
| QVQLVESGGGLVQAGGSLRLSCAASGRTLGKYAMGWYRQAPGKERELVAAIRWTGGNTYYADSVKGRFTISRDNAKNTVYLQMNSLKPEDPAGYYCNAVSFGRARHGGPVYGYDYWGQGTQVTVSS | high polyreactivity |
| QVQLEESGGGLVQAGGSLRFSCAASGSIMTRNAMGWYRQPTGKEMELVAAITGSGGRTYYADSVKGRFSISRDNAKKTFFLQMTSLIPEDTAVYYCATRYGREDYWGQGTQVNVSS | high polyreactivity |
| QVQLVESGGGLVQAGGSLRLSCAASGFIFVQYAMGWYRQAPGKERELVAAITKSGGRTYYADSVKGRFTISRDNAKNTVYLQMNSLKPEDTAVYYCAALGNGNFPTVDYWGQGTQVTVSS | high polyreactivity |
| QVQLVESGGGLVHAGGSLRLSCAASGRTFKIYAMGWYRQAPGKERELVATISWRGGSTYYADSVKGRFTISRDNAKNTVYLQMNSLKPEDTAVYYCAKALYVAGSAYRAGYGVRYDYWGQGTQVTVSS | low polyreactivity |
| QVQLVESGGGLVQAGGSLRISCAASGRIYPVYVMGWYRQAPGKERELVAAINYNGGSTTYADSVKGRFTISRDNAKNTVYLQMNSLKPADTAVYYCAAGTPAYVETEYEYWGQGTQVTVSS | low polyreactivity |
| QVQLVESGGGLVQAGGSLRLSCAASGSTFPINAMGWYRQAPGTERELVAAIDTNTASTYYADSVKGRFTISRDNAKNTVYLQMNSLKPEDTAVYYCAAEEWFYDGNVIYDWGQGTQVTVSS | high polyreactivity |
| QFQLVESGGGLVQAGGSLRLSCAASGRIFVYNDMVWYRQAPGKEREFVATITSSGGRTYYADSVKGRFTISRDNAKNTVYLQMNRLKPEDTAVYYCNKVGYSNLLGYDYWGQGTQVTVSS | high polyreactivity |
| QVQLQESGGGLVQADGSLRLSCAASGSIFGYYYMGWYRQAPGKDRELVATINICGITNYADSVKGRFTISRDNAKNTVYLQMNSLKPDDTAVYYCAADEYAQRDLGYWGQGTQVTVSR | low polyreactivity |
| QVQLVESGGGLVQAGGSLRLSCAASGFIFYPNAMGWYRQAPGKERELVAGISWSGTSTYYADSVKGRFTISRDNAKNTVYLQMNSLKPEDTAVYYCNRVFYHFDVDRYDYWGQGTQVTVSS | low polyreactivity |
| QVQLVESGGGLVQAGGSLRLSCAASGNTYYGNTKGWYRQAPGKERELVAAITSGGSTYYADSVKGRFTISRDNAKNTVYLQMNSLKPEDTAVYYCNVVFYEYSSVSYDYWGQGTQVTVSS | high polyreactivity |
| QVQLVESGGGLVQAGGSLRLSCAASGSTFPYYVMGWYRQAPGKERELVAAISGSGTRTYYADSVKGRFTISRDNAKNTVYLQMNSLKPEDTAVYYCAARKYPQGFDYWGQGTQVTVSS | low polyreactivity |
| QVQLVESGGGLVQAGGSLRLSCAASGSIFDSYAMGWYRQAPGKERELVAAISWSGGSTYYADSVKGRFTISRDTAKNTVYLQMNSLKPDDTAVYYCNTDWADYYYYTDYDYWGQGTQLTVSS | high polyreactivity |
| QVQLVESGGGLVQAGGSLRLSCAASGNIFTYYVMGWYRQAPGKESELVAAISRRGGSTYYADSVKGRFTISRDNAKNTVYLQMNSLNPEDTAVYYCADRWYKWSTFSGWSRYDYWGQGTQVTVSS | high polyreactivity |
| QVQLVESGGGLVQAGGSLRLSCAASGIIFSYYAMGWYRQAPGKERELVAAISSSGVSTNYADSVKGRFTISRDNAKNTVYLQMNSLKPEDTAVYYCNGRGYYWYRPYVNSNGGYWGQGTQVTVSS | high polyreactivity |
| QVQLVESGGGLVQAGGSLRLSCAASGRIFVRYAKGWYRQAPGKERELVAAISRSGGSTYYADSVKGRFTISRDNAKNTVYLQMNSLKPEDTAVYYCNAAYWRRYYQLEDYWGQGTQVTVSS | high polyreactivity |
| QVQLVESGGGLVQAGGSLRLTCAASGRIFLYYTMGWYRQAPGKERELVAAITRSGGSTYYADSVKGRFTISRDNAKNTVYLQMNSLKPEDTAVYYCKRAYVRYVPMNYWGQGTQVTLSS | high polyreactivity |
| QVQLVESGGGLVQAGGSLRLSCAASRSIFVPYAMGWYRQAPGKERELVAVITSGGSTYYADSVKGRFTISRDNAKNTVYLQMNSLKPEDTAVYYCNADLYYVWSTLSQFDYWGQGTQVTVSS | low polyreactivity |
| QVQLVESGGGIVQAGGSLRLSCAASGRTFVSYAKGWYRQAPGKERELVAAISSSGGRTYYADSVKGRFTISRDNAKNTVYLQMNSLKPEDTAVYYCNAVRFISARYDYWGQGTQVTVSS | high polyreactivity |
| QVQLVESGGGLVQAGGSLRLSCAASGSTFGYYAMGWYRQAPGKERELVAAISSGGSTNYADSVKGRFTISRDNAKNTVYLQMNSLKPEDTAVYYCNVGYIFVSFRYDYWGQGTQVTVSS | low polyreactivity |
| QVQLVESGGGLVQAGGSLRLSCAASGSTIRLYAMGWYRQAPGKESELVAAISVSGGSTHYADSVKGRFTISRDNAKNTVYLQMNSLKPEYTAVYYFNAAGNPVSRYHYDYWGQGTQVTVSS | high polyreactivity |

| Sequence | polyreactivity (PSR sort gate) |
| --- | --- |
| QVQLVESGGGLVHAGGSIRLSCSASRRIFGYNVMGWYRQAPGKERELVAAITSGDRTYYADSVKGRFTISRDNAKHTVYLQMNSLKPEDTAVYYCAARGDRRRYGSLMDSWGQGTQVTVSS | high polyreactivity |
| QVQLVESGGGLVQAGGSLRLSCAASGRIFGVNAMGWYRPAPGKERELVAHIRSSGASTYYADSVKGRFTISRDNAKNTVYLQMNSLKPEDTAVYYCARDYFVDGPGYDYWGQGTQVTVSS | low polyreactivity |
| QVQLVDSGGGLVQAGGSLRLSCASSGFTISPYAMGWYRQAPGKERELVAAISSSGGSTYYADSVKGRFTISRDNAKYTVYLQMTSLKPEDTAVYYCATQGTRRPGKFYYWGQCTQVTVSS | high polyreactivity |
| QVQLVESGGGLVQAGGSLRLSCAASGFTFSVYAMGWYRQAPGKERELVASITNGGTTYYADSVKGRFTISRDNAKNTVYLQMNSLKPEDTAVYYCAAKLYSWYHKFVNPTYGYWGQGTQVTVSS | high polyreactivity |
| QVQLVESGGGLVQAGGILRLSCAASGGIFNRYSKGWYRQAPGKERELVAGITRSGGSTSYADSVKGRFTISRDNAKNTVYLQMNSLKPEDTAVYFCKKVAYYASSSSYRFGAYGYWGQGSQVTVSS | high polyreactivity |
| QVQLVDSRGGLLQAGGSLRLSCAASGSIISRNAKGWYRQAPGKESELVAAITRSGGSTYYADSVKGRFTISRENAKNTVYLQRNRLKPEDTAVYYCATPIFSARRYTGYVKYDYWAQGTQVTVSS | high polyreactivity |
| QVQLVESGGGLVQAGGSLRLSCAASGYIFRFNAMGWYRQAPGKERELVAAISRSGGRTYYADSVKGRFTISRDNAKNTVYLQMNSLKPEDTAVYYCAAVRYKGGGNQPYGYWGQGTQVTVSS | high polyreactivity |
| QVQLVESGGGLVQAGGSLSLSCAASGLTFAKNAMGWYRQAPGKERELVAVITSSGGSTYYADSVKGRFTISRDNAKNTVYLQMNSLKPEDTAVYYCNVAYYDRSRSTGYEYWGQGTQVTVSS | high polyreactivity |
| QVQLVESGGGLVQAGGSLRLSCAASGRIFKLYAMGWYRQAPGKERELVAAISKSGGNTYADSVKGRFTISRDNAKNPVYLQMNSLKPEDTAVYYCAATVQSTSDPFDYLGQGTQVTVSS | low polyreactivity |
| QVQLVESGGGLVQAGGSLRLSCAASGSIFPSYAMGWFRQAPRKERELVAAISRSAGSTYYADSVKGRFTISRDNAKNTVYLQMNSLKPEDTAVYYCAADGYSSRYRFDYWGQGTQVTVSS | low polyreactivity |
| QVQLVESGGGLVQAGGSLRLSCAASGSTFHYYAMGWYRQAPGKERELVAAISQSGSGTYYADSVKGRFTISRDNAKNTVYLQMNSLKPEDTAVYYCAKESTKIYRVVEMDYWGQGTQVTVSS | low polyreactivity |
| QVQLVESGVGLVQAGGSLRLSCAASGRIFCYYAMGWYRQAPGKERELVATINGGGSTNYADSVKGRFTISRDNAKNTVYLQMNSLKPEDTAVYYCAAAQWAYWLLYKYWGQVTQVTVSS | low polyreactivity |
| QVQLVESGGGLVQAGGSLRLSCAASGLTFVDNAMGWYRQAPGKERELVAAISYNGGSTYYADSVMGRFTISRDNAKNTVYLLMNSLKPEDTAVYYCAADISVGRYGDMDYWGQGTQVTVSS | low polyreactivity |
| QVQLVESGGGLVQAGGSLRLSCAASGRTFEGNAMGWYRQAPGKESELVAAITSGGRTNYADSVKGRFTISRDNAKNTVYLQMNCLKPEDPAVYYCAVETRDRSNYFPGQAYDYWGQGTQVTVSS | low polyreactivity |
| QVQLVESGGGLVQAGGSLRLSCAASGLTFGANDMGWYRQAPGKERELVAAIDWSGGSTFYADSVKGRFTISRDNAKNTVYLQMNSLKPEDTAVYYCAALGFGYPYPEYDYWGQGTQVTVSS | low polyreactivity |
| QVQHVESVGGIVQAGGSLRLICAASGFIFVGYAMGWYRQAPGKERELVAAISTSGGRTYYADSVKGRFTISRDNAKNTVYLQLNSLKPEDTAVYYCAAKRPGCIQYSYYYWGQGTQVTVSS | high polyreactivity |
| QVQLVESGGGLVQAGGSLRLSCAASGIIFTFYGMGWYRQAPGKERELVAAIRTGGSTTYADSVKGRFTISRDNAKNTVYLQMNSLKPEDTAVYYCAAERYWVFHGTISYNYDYWGQGTQVTVSS | low polyreactivity |
| QVQLVESGGGLVQAGGSLRLSSAASGRIFTVYAMGWYRQAPGKERELVAAITRGGGGTYYADSVKGRFTITRDYAKNTDYLQMNRLKPEDTAVYYCAATHNQVVARYSFNYWGQGTQVTVSS | high polyreactivity |
| QVQLVESGGGLVQAGGSLRLSCAASGSTFRVYAMGWYRQAPGKESELVATISWGGGRTYYADSVKGRFTISRDNAKNTVYLLMNSLKPEDTAVYYCAADQRWTTDQPTAGDYWGQGTQVTVSS | low polyreactivity |
| QVQLVESGGGLVQAGGSLRLSCAASGSTFVRNAMGWYRQATGKERELVAAITTSGARTYYADSVKGRFTISRDNAKNTVYLQMNSLKPEDTAVYYCAAEYKGRTYRFDYWGQGTQVTVSS | low polyreactivity |
